What was measured:
[1] = biological target: CAV20 non-structural protein 2C^ATPase (wt) (coxsackie A virus 20 (CAV20)); assay: co-IP
PV GST-2C^ATPase = biological target: T1, PV GST-2C^ATPase (poliovirus (PV; the paper's PV is type …, UniProt P03300 1128-1456); assay: […] (50 mM Tris-HCl pH 7.5, 140 mM NaCl, 0.1% Triton X-100, […]; conditions: both partners purified
T1 sequence: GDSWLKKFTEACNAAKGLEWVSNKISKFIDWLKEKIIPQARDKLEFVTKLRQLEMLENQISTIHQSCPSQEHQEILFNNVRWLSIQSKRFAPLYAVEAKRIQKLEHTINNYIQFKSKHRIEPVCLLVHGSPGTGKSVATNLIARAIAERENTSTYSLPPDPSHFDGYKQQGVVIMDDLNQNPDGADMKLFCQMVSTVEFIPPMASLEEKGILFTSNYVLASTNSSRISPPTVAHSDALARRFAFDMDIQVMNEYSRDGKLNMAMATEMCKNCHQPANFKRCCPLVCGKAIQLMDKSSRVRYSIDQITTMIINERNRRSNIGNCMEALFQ

Molecule	percent of the level in the CAV20 2C^ATPase and CAV20 VP3 Co-IP reaction [1] [%]	binding result (PV GST-2C^ATPase)
CAV20 structural protein VP3 (wt) (natural protein)	100	
PV His-tagged VP3 (natural protein) GLPVMNTPGSNQYLTADNFQSPCALPEFDVTPPIDIPGEVKNMMELAEIDTMIPFDLSATKKNTMEMYRVRLSDKPHTDDPILCLSLSPASDPRLSHTMLGEILNYYTHWAGSLKFTFLFCGFMMATGKLLVSYAPPGADPPKKRKEAMLGTHVIWDIGLQSSCTMVVPWISNTTYRQTIDDSFTEGGYISVFYQTRIVVPLSTPREMDILGFVSACNDFSVRLLRDTTHIEQKALAQ		binds
